# Measurements reported in IntAct's records for PubMed 17875641.
# B1: tRNA-specific adenosine deaminase subunit tad3 (Schizosaccharomyces pombe (strain ATCC 38366 / 972)), Q9P7N4 (parent)
# chain: MVKTNISKNSPKEATVPELDWPFKLIKSHLETRKLETENVWIACFEPKYASKVTQYVKQIRSKQKESLLHCNRLRRIQDENGSLELQIIICPEKSMTANEIGKDFEDLGIVSKMIFLYAVPAFPPLTDEQFHEWNSVWPVSYRKHVQRQDVFTVHELKRIESILEDLINAAGASHKHGEIGCAAAIYDPTTDTVLAVSVDERSKLKNPINHCVMNAINLVAKRELSRRQNRTDGSKDRYLCKDLTVVMTHEPCVMCSMGLLHSRIRRLIYCKKQPLTGGIESLYGIHWRAELNHRYLAYSGWNKPVPSIKENIHV
# partner: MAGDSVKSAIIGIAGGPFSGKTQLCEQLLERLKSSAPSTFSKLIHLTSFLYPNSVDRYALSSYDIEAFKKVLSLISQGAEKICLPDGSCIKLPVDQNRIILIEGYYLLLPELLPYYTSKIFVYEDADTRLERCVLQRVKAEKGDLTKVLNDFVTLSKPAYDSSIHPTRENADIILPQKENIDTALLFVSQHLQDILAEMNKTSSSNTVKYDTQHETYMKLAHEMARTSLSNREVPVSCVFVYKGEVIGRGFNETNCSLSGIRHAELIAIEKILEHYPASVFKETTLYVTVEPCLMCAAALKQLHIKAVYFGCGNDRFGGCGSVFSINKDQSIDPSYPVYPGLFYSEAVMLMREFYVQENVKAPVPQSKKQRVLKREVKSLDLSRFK
# Variants of: B1
# Conditions: with tad2_schpo tad2, O94642
row,Variant,effect of a mutation on the interaction
1,S257N,decreasing interaction
